Test results: patent US20230235013A1 (MABSOLVE, published 2023)
Residue numbers refer to the chain shown, from its start. In names and notes the source's numbering stands.

B1: anti-CD20 human IgG1 L234N/L235A/G236R (antibody)
heavy: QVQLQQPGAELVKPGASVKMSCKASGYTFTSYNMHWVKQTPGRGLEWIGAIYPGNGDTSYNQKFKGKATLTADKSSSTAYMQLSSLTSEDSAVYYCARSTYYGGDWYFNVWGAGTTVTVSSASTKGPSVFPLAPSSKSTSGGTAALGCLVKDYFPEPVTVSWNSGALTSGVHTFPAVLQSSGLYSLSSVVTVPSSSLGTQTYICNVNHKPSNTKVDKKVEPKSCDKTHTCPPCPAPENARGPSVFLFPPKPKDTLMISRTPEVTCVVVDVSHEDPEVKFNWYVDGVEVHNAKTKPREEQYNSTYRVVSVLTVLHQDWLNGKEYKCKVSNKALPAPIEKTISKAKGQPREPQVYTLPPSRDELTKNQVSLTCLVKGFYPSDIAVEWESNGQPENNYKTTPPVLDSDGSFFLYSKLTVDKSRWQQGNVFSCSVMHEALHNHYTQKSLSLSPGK
light: QIVLSQSPAILSASPGEKVTMTCRASSSVSYIHWFQQKPGSSPKPWIYATSNLASGVPVRFSGSGSGTSYSLTISRVEAEDAATYYCQQWTSNPPTFGGGTKLEIKRTVAAPSVFIFPPSDEQLKSGTASVVCLLNNFYPREAKVQWKVDNALQSGNSQESVTEQDSKDSTYSLSSTLTLSKADYEKHKVYACEVTHQGLSSPVTKSFNRGEC
notes: also called 1-92; copies: 2 + 2
B2: anti-CD20 human IgG1 L234Q/L235N/G236R (antibody)
heavy: QVQLQQPGAELVKPGASVKMSCKASGYTFTSYNMHWVKQTPGRGLEWIGAIYPGNGDTSYNQKFKGKATLTADKSSSTAYMQLSSLTSEDSAVYYCARSTYYGGDWYFNVWGAGTTVTVSSASTKGPSVFPLAPSSKSTSGGTAALGCLVKDYFPEPVTVSWNSGALTSGVHTFPAVLQSSGLYSLSSVVTVPSSSLGTQTYICNVNHKPSNTKVDKKVEPKSCDKTHTCPPCPAPEQNRGPSVFLFPPKPKDTLMISRTPEVTCVVVDVSHEDPEVKFNWYVDGVEVHNAKTKPREEQYNSTYRVVSVLTVLHQDWLNGKEYKCKVSNKALPAPIEKTISKAKGQPREPQVYTLPPSRDELTKNQVSLTCLVKGFYPSDIAVEWESNGQPENNYKTTPPVLDSDGSFFLYSKLTVDKSRWQQGNVFSCSVMHEALHNHYTQKSLSLSPGK
light: B1 light
notes: copies: 2 + 2
B3: anti-CD20 human IgG1 L234R/L235S/G236R (antibody)
heavy: B2 heavy with Q238R, N239S
light: B1 light
notes: copies: 2 + 2
B4: anti-CD20 human IgG1 L234Q/L235Q/G236R (antibody)
heavy: B2 heavy with N239Q
light: B1 light
notes: also called 2-31; copies: 2 + 2
B5: anti-CD20 human IgG1 L234S/L235K/G236R (antibody)
heavy: B2 heavy with Q238S, N239K
light: B1 light
notes: copies: 2 + 2
B6: anti-CD20 human IgG1 L234Q/L235M/G236R (antibody)
heavy: B2 heavy with N239M
light: B1 light
notes: also called 1-115; copies: 2 + 2
B7: anti-CD20 human IgG1 L234R/L235A/G236R (antibody)
heavy: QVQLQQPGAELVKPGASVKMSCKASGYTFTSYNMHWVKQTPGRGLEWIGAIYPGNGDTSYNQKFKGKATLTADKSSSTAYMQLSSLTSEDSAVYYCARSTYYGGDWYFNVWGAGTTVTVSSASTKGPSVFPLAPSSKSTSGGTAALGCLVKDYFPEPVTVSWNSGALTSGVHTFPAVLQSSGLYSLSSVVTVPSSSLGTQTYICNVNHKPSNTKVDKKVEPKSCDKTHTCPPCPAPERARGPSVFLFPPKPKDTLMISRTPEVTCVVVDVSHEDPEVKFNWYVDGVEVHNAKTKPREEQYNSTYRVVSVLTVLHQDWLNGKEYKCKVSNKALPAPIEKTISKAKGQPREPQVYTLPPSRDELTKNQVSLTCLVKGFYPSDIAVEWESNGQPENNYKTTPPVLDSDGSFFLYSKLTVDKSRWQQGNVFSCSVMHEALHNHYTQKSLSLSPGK
light: B1 light
notes: copies: 2 + 2
B8: anti-CD20 human IgG1 L234N/L235H/G236R (antibody)
heavy: B2 heavy with Q238N, N239H
light: B1 light
notes: also called 1-96; copies: 2 + 2
B9: anti-CD20 human IgG1 L234S/L235I/G236R (antibody)
heavy: B2 heavy with Q238S, N239I
light: B1 light
notes: also called 2-49; copies: 2 + 2
B10: anti-CD20 human IgG1 L234R/L235Q/G236R (antibody)
heavy: B2 heavy with Q238R, N239Q
light: B1 light
notes: also called 2-42; copies: 2 + 2
B11: anti-CD20 human IgG1 L234N/L235G/G236R (antibody)
heavy: B2 heavy with Q238N, N239G
light: B1 light
notes: also called 1-95; copies: 2 + 2
B12: anti-CD20 human IgG1 L234N/L235Q/G236R (antibody)
heavy: B2 heavy with Q238N, N239Q
light: B1 light
notes: copies: 2 + 2
B13: anti-CD20 human IgG1 L234R/L235V/G236R (antibody)
heavy: B2 heavy with Q238R, N239V
light: B1 light
notes: copies: 2 + 2
B14: anti-CD20 human IgG1 L234S/L235Q/G236R (antibody)
heavy: B2 heavy with Q238S, N239Q
light: B1 light
notes: copies: 2 + 2
B15: anti-CD20 human IgG1 L234N/L235R/G236R (antibody)
heavy: B2 heavy with Q238N, N239R
light: B1 light
notes: copies: 2 + 2
B16: anti-CD20 human IgG1 L234N/L235D/G236R (antibody)
heavy: B2 heavy with Q238N, N239D
light: B1 light
notes: also called 1-93; copies: 2 + 2
B17: anti-CD20 human IgG1 L234N/L235I/G236R (antibody)
heavy: B2 heavy with Q238N, N239I
light: B1 light
notes: also called 1-97; copies: 2 + 2
B18: anti-CD20 human IgG1 L234Q/L235H/G236R (antibody)
heavy: B2 heavy with N239H
light: B1 light
notes: also called 2-29; copies: 2 + 2
B19: anti-CD20 human IgG1 L234Q/L235K/G236R (antibody)
heavy: B2 heavy with N239K
light: B1 light
notes: copies: 2 + 2
B20: anti-CD20 human IgG1 L234S/L235N/G236R (antibody)
heavy: B2 heavy with Q238S
light: B1 light
notes: copies: 2 + 2
B21: anti-CD20 human IgG1 L234Q/L235G/G236R (antibody)
heavy: B2 heavy with N239G
light: B1 light
notes: also called 1-110; copies: 2 + 2
B22: anti-CD20 human IgG1 L234R/G236R (antibody)
heavy: not shown
light: B1 light
notes: also called 2-41; copies: 2 + 2
B23: anti-CD20 human IgG1 L234S/L235A/G236R (antibody)
heavy: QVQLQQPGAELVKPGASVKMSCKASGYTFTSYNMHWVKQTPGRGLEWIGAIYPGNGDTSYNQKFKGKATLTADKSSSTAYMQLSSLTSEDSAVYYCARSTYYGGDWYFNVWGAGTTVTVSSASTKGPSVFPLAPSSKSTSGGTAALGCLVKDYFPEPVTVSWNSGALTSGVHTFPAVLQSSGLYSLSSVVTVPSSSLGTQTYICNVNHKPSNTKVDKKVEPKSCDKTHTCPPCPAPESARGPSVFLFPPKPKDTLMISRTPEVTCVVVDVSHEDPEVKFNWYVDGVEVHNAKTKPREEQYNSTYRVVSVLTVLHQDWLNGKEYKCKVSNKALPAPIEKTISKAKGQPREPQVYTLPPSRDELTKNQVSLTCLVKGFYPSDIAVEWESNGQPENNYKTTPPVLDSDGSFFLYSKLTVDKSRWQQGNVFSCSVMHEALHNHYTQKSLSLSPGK
light: B1 light
notes: also called 1-137; copies: 2 + 2
B24: anti-CD20 human IgG1 L234R/L235G/G236R (antibody)
heavy: B2 heavy with Q238R, N239G
light: B1 light
notes: copies: 2 + 2
B25: anti-CD20 human IgG1 L234Q/L235V/G236R (antibody)
heavy: B2 heavy with N239V
light: B1 light
notes: copies: 2 + 2
B26: anti-CD20 human IgG1 L234N/L235N/G236R (antibody)
heavy: B2 heavy with Q238N
light: B1 light
notes: copies: 2 + 2
B27: anti-CD20 human IgG1 L234S/L235R/G236R (antibody)
heavy: B2 heavy with Q238S, N239R
light: B1 light
notes: also called 2-51; copies: 2 + 2
B28: anti-CD20 human IgG1 L234N/L235S/G236R (antibody)
heavy: B2 heavy with Q238N, N239S
light: B1 light
notes: copies: 2 + 2
B29: anti-CD20 human IgG1 L234R/L235N/G236R (antibody)
heavy: B2 heavy with Q238R
light: B1 light
notes: copies: 2 + 2
B30: anti-CD20 human IgG1 L234Q/L235I/G236R (antibody)
heavy: B2 heavy with N239I
light: B1 light
notes: copies: 2 + 2
B31: anti-CD20 human IgG1 L234S/L235M/G236R (antibody)
heavy: B2 heavy with Q238S, N239M
light: B1 light
notes: copies: 2 + 2
B32: anti-CD20 human IgG1 L234S/L235E/G236R (antibody)
heavy: B2 heavy with Q238S, N239E
light: B1 light
notes: also called 2-46; copies: 2 + 2
B33: anti-CD20 human IgG1 L234Q/L235E/G236R (antibody)
heavy: B2 heavy with N239E
light: B1 light
notes: copies: 2 + 2
B34: anti-CD20 human IgG1 L234R/L235E/G236R (antibody)
heavy: B2 heavy with Q238R, N239E
light: B1 light
notes: also called 2-37; copies: 2 + 2
B35: anti-CD20 human IgG1 L234N/L235V/G236R (antibody)
heavy: B2 heavy with Q238N, N239V
light: B1 light
notes: copies: 2 + 2
B36: anti-CD20 human IgG1 L234N/L235K/G236R (antibody)
heavy: B2 heavy with Q238N, N239K
light: B1 light
notes: also called 1-98; copies: 2 + 2
B37: anti-CD20 human IgG1 L234N/L235E/G236R (antibody)
heavy: B2 heavy with Q238N, N239E
light: B1 light
notes: also called 1-94; copies: 2 + 2
B38: anti-CD20 human IgG1 L234N/L235T/G236R (antibody)
heavy: B2 heavy with Q238N, N239T
light: B1 light
notes: copies: 2 + 2

Target: T1, Histidine-tagged recombinant human FcγRI (CD64) (human, UniProt P12314 16-288)
T1 construct: bought; also called Sino Biological Cat. No. 12056-H08H
Assay: SPR, culture supernatant, captured His-FcγRI;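 further: biacore T200 SPR at 25 °C, anti-His capture, supernatants of HEK293 cells expressing IgG1 Fc variants injected 1 min, reference-subtracted response read 55 s after injection start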

| Binder | Mean binding response [RU] |
| --- | --- |
| B1 | 22.3 |
| B2 | 26.8 |
| B3 | 34 |
| B4 | 16.8 |
| B5 | 23.8 |
| B6 | 38.4 |
| B7 | 28.1 |
| B8 | 17.7 |
| B9 | 12 |
| B10 | 10.1 |
| B11 | 22.1 |
| B12 | 4.5 |
| B13 | 32.5 |
| B14 | 29.6 |
| B15 | 30.4 |
| B16 | 13.4 |
| B17 | 14.1 |
| B18 | 10 |
| B19 | 26.9 |

| Binder | Mean binding response [RU] |
| --- | --- |
| B20 | 22.7 |
| B21 | 28.1 |
| B22 | 21.1 |
| B23 | 29.6 |
| B24 | 31.9 |
| B25 | 20.9 |
| B26 | 16.9 |
| B27 | 11.1 |
| B28 | 18.4 |
| B29 | 10.8 |
| B30 | 34.7 |
| B31 | 32 |
| B32 | 11.6 |
| B33 | 28.8 |
| B34 | 16.7 |
| B35 | 18.9 |
| B36 | 25 |
| B37 | 16.4 |
| B38 | 8.6 |
